According to PMC7910558, “The HIF-1α antisense long non-coding RNA drives a positive feedback loop of HIF-1α mediated transactivation and glycolysis”:

What was measured:
PHD3 (EMSA) = PHD3 (EMSA) (UniProt Q9H6Z9 1-239); test: EMSA; Pull-down: RNA folded in 10 mM Tris pH 7, 0.1 M KCl, 10 mM MgCl2, then 5 µg RNA with 5 mg lysate in Pierce IP lysis buffer, 1 h, room temperature; EMSA: LightShift chemiluminescent RNA EMSA kit, buffer not given; conditions: protein: recombinant, label: biotin-16-UTP
PKM2 (EMSA) = PKM2 (EMSA) (UniProt P14618 1-531); test: as above; conditions: protein: recombinant; label: biotin-16-UTP; two predicted hairpins (nt 4-19, nt 30-57)
Sequence of PKM2 (EMSA) (P14618 whole entry): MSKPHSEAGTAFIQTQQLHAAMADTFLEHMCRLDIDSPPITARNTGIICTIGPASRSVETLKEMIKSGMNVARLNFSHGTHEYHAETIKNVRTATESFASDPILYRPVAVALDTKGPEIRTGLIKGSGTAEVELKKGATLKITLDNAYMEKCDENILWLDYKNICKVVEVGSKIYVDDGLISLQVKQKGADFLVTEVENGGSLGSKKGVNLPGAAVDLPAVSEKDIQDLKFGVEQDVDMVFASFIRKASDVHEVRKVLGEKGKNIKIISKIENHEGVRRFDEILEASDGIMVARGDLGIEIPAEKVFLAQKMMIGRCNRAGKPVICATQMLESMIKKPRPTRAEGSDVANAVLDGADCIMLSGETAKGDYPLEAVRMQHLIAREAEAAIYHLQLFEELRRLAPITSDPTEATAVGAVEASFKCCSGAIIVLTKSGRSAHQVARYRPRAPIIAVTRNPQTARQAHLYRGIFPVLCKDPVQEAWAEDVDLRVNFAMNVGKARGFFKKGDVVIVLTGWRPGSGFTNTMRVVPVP

Sequence of PHD3 (EMSA) (Q9H6Z9 whole entry): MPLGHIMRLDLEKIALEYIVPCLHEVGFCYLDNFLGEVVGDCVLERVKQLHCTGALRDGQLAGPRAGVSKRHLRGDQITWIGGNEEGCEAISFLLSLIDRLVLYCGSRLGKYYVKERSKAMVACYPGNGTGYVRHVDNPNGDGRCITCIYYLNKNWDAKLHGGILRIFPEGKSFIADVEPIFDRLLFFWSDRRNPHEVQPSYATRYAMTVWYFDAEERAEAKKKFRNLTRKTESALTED

B1: HIFAL nt 501-560 (structured_RNA)
RNA: UGCAUGGUGCUUACUAAUAACACAGUGGUAUUCUAAACAUUUUUCACCUAUUAUUUAAUC
B1: binds (PHD3 (EMSA); predicted hairpin (nt 506-532)).

UGCAUGUCUAAACAUUUUUCACCUAUUAUUUAAUC (ssRNA) [HIFAL 501-560 ΔhC (mC)]: no binding (PHD3 (EMSA)).

B2: HIFAL nt 1-60 (structured_RNA)
RNA: UCAUGUAGCGCCAGCCACACCAGGAACAGAAGGGUGCCGGGUACCUUCCGCAUGCUUGGU
B2: binds (PKM2 (EMSA)).
